Results from the supplement of paper PMC9112550, “Optimization of the antimicrobial peptide Bac7 by deep mutational scanning” (BMC Biology, 2022).

System: Escherichia coli TOP10
Experiment: shrunken log2 fold change of peptide-encoding DNA abundance (4.5 h post-induction vs induction); higher = less antimicrobial activity (less host growth inhibition)
Settings: time post-induction: 4.5 h; library: site-saturation at positions 5, 18, 19, 20
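Note: peptides expressed intracellularly from a pBAD plasmid library in pooled LB shake-flask culture, induced with 0.3% L-arabinose, DNA abundance read by NGS, three biological replicates, DESeq2 with apeglm shrinkage.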

Sequence | shrunken log2 fold change
RRIRIRPPRLPRPRPRPTGMPRP | -0.161
RRIRNRPPRLPRPRPRPCAWPRP | -0.147
RRIRQRPPRLPRPRPRPGPRPRP | 0.565
RRIRERPPRLPRPRPRPHGLPRP | -0.161
RRIRFRPPRLPRPRPRPWVAPRP | -0.139
RRIRPRPPRLPRPRPRPMGYPRP | -0.0838
RRIRWRPPRLPRPRPRPCMMPRP | -0.229
RRIRYRPPRLPRPRPRPRSLPRP | -0.0256
RRIRERPPRLPRPRPRPAHTPRP | -0.0788
RRIRDRPPRLPRPRPRPAYWPRP | -0.0729
RRIRLRPPRLPRPRPRPASMPRP | -0.357
RRIRSRPPRLPRPRPRPQSVPRP | -0.138
RRIRGRPPRLPRPRPRPVKTPRP | 0.0324
RRIRDRPPRLPRPRPRPGLDPRP | 0.0981
RRIRGRPPRLPRPRPRPNPKPRP | 0.391
RRIRRRPPRLPRPRPRPANSPRP | 0.0678
RRIRQRPPRLPRPRPRPQSWPRP | 0.0219
RRIRKRPPRLPRPRPRPSWWPRP | 0.138
RRIRCRPPRLPRPRPRPYIHPRP | -1.11
RRIRNRPPRLPRPRPRPPWFPRP | 0.349
RRIRTRPPRLPRPRPRPNFPPRP | -0.00778
RRIRYRPPRLPRPRPRPVIDPRP | -0.942
RRIRERPPRLPRPRPRPKTQPRP | -0.102
RRIRTRPPRLPRPRPRPISRPRP | -0.0253
RRIRPRPPRLPRPRPRPLWGPRP | 0.232

Sequence | shrunken log2 fold change
RRIRCRPPRLPRPRPRPAGTPRP | -0.202
RRIRARPPRLPRPRPRPCPTPRP | 0.088
RRIRIRPPRLPRPRPRPWTQPRP | 0.0826
RRIRQRPPRLPRPRPRPKQNPRP | -0.0189
RRIRQRPPRLPRPRPRPGYIPRP | -0.625
RRIRPRPPRLPRPRPRPPKYPRP | -0.148
RRIRGRPPRLPRPRPRPVYRPRP | 0.15
RRIRFRPPRLPRPRPRPYCNPRP | -1.06
RRIRMRPPRLPRPRPRPVYAPRP | 0.243
RRIRQRPPRLPRPRPRPQFGPRP | 0.0348
RRIRMRPPRLPRPRPRPVMIPRP | 0.021
RRIRFRPPRLPRPRPRPLVEPRP | -0.0559
RRIRPRPPRLPRPRPRPSQYPRP | -0.415
RRIRLRPPRLPRPRPRPICMPRP | -0.456
RRIRLRPPRLPRPRPRPPCIPRP | -0.519
RRIRSRPPRLPRPRPRPKMCPRP | -0.015
RRIRRRPPRLPRPRPRPFAGPRP | -0.0164
RRIRDRPPRLPRPRPRPHFAPRP | -0.103
RRIRWRPPRLPRPRPRPQYQPRP | -0.268
RRIRKRPPRLPRPRPRPYGHPRP | -0.162
RRIRPRPPRLPRPRPRPKKMPRP | 2.39
RRIRERPPRLPRPRPRPPGAPRP | 0.573
RRIRVRPPRLPRPRPRPQMSPRP | -0.233
RRIRMRPPRLPRPRPRPTHWPRP | 0.864
RRIRFRPPRLPRPRPRPKNIPRP | -0.485

Sequence | shrunken log2 fold change
RRIRQRPPRLPRPRPRPWDWPRP | 0.0372
RRIRYRPPRLPRPRPRPDMSPRP | -0.0894
RRIRMRPPRLPRPRPRPFSKPRP | -0.284
RRIRPRPPRLPRPRPRPKVGPRP | 0.172
RRIRDRPPRLPRPRPRPLGNPRP | -0.0332
RRIRRRPPRLPRPRPRPTNQPRP | 0.111
RRIRFRPPRLPRPRPRPHQCPRP | -0.315
RRIRDRPPRLPRPRPRPSNCPRP | -0.576
RRIRARPPRLPRPRPRPQLFPRP | 0.18
RRIRNRPPRLPRPRPRPIWIPRP | -0.0856
RRIRSRPPRLPRPRPRPATNPRP | 0.0897
RRIRCRPPRLPRPRPRPDYGPRP | 2.76
RRIRIRPPRLPRPRPRPKQLPRP | -0.0927
RRIRPRPPRLPRPRPRPHGWPRP | 0.274
RRIRIRPPRLPRPRPRPRWTPRP | 0.0809
RRIRQRPPRLPRPRPRPTVAPRP | 0.118
RRIRARPPRLPRPRPRPNPRPRP | 0.722
RRIRIRPPRLPRPRPRPFDLPRP | -0.348
RRIRERPPRLPRPRPRPNSKPRP | -0.863
RRIRFRPPRLPRPRPRPMHDPRP | -0.236
RRIRVRPPRLPRPRPRPFREPRP | 0.0848
RRIRMRPPRLPRPRPRPFGCPRP | 0.254
RRIRERPPRLPRPRPRPDVFPRP | -0.0359
RRIRDRPPRLPRPRPRPYHWPRP | 0.0299
RRIRIRPPRLPRPRPRPIYSPRP | -0.946

Sequence | shrunken log2 fold change
RRIRYRPPRLPRPRPRPVTSPRP | -0.168
RRIRYRPPRLPRPRPRPWMNPRP | -0.00197
RRIRLRPPRLPRPRPRPACFPRP | 0.259
RRIRLRPPRLPRPRPRPLQTPRP | 0.101
RRIRDRPPRLPRPRPRPVNMPRP | -0.296
RRIRERPPRLPRPRPRPCQLPRP | -0.265
RRIRKRPPRLPRPRPRPNFNPRP | -0.0705
RRIRHRPPRLPRPRPRPHRLPRP | -0.0453
RRIRRRPPRLPRPRPRPCIAPRP | -0.247
RRIRLRPPRLPRPRPRPHHSPRP | -0.506
RRIRTRPPRLPRPRPRPRNIPRP | -0.623
RRIRGRPPRLPRPRPRPYYEPRP | 0.0278
RRIRCRPPRLPRPRPRPLKVPRP | -0.284
RRIRLRPPRLPRPRPRPDSTPRP | -0.603
RRIRTRPPRLPRPRPRPRIVPRP | -0.0873
RRIRCRPPRLPRPRPRPDRYPRP | 0.00956
RRIRDRPPRLPRPRPRPYTSPRP | 0.0448
RRIRMRPPRLPRPRPRPVIHPRP | 0.0153
RRIRPRPPRLPRPRPRPERLPRP | 0.0284
RRIRRRPPRLPRPRPRPNTTPRP | -0.283
RRIRCRPPRLPRPRPRPNCQPRP | -0.134
RRIRTRPPRLPRPRPRPTNDPRP | -0.547
RRIRRRPPRLPRPRPRPVWPPRP | 0.36
RRIRFRPPRLPRPRPRPIWGPRP | 0.0125
RRIRWRPPRLPRPRPRPNPDPRP | 0.167

Sequence | shrunken log2 fold change
RRIRIRPPRLPRPRPRPESSPRP | -0.0745
RRIRIRPPRLPRPRPRPIKAPRP | -0.38
RRIRTRPPRLPRPRPRPEMIPRP | 0.0294
RRIRGRPPRLPRPRPRPDMEPRP | 0.864
RRIRSRPPRLPRPRPRPRKVPRP | 1.58
RRIRIRPPRLPRPRPRPTQPPRP | -0.0427
RRIRPRPPRLPRPRPRPRKLPRP | 0.342
RRIRWRPPRLPRPRPRPGCPPRP | 0.0461
RRIRCRPPRLPRPRPRPGTDPRP | -0.00121
RRIRYRPPRLPRPRPRPGDVPRP | -0.484
RRIRVRPPRLPRPRPRPIWCPRP | 0.0502
RRIRNRPPRLPRPRPRPYKQPRP | -0.0495
RRIRNRPPRLPRPRPRPLKFPRP | -0.212
RRIRMRPPRLPRPRPRPWRDPRP | 0.518
RRIRWRPPRLPRPRPRPGPTPRP | 0.487
RRIRRRPPRLPRPRPRPICLPRP | 0.12
RRIRCRPPRLPRPRPRPSTVPRP | -0.443
RRIRMRPPRLPRPRPRPISGPRP | 0.0247
RRIRIRPPRLPRPRPRPSALPRP | -0.832
RRIRCRPPRLPRPRPRPMINPRP | -0.53
RRIRRRPPRLPRPRPRPRFGPRP | 0.438
RRIRTRPPRLPRPRPRPVEPPRP | 0.00744
RRIRARPPRLPRPRPRPEYDPRP | 0.695
RRIRERPPRLPRPRPRPAWKPRP | -0.0447
RRIRMRPPRLPRPRPRPWEVPRP | -0.00931

Sequence | shrunken log2 fold change
RRIRGRPPRLPRPRPRPCDKPRP | 0.297
RRIRRRPPRLPRPRPRPDLPPRP | 0.0159
RRIRERPPRLPRPRPRPPWNPRP | -0.246
RRIRDRPPRLPRPRPRPHCVPRP | 0.017
RRIRDRPPRLPRPRPRPHRAPRP | -0.0299
RRIRIRPPRLPRPRPRPLEYPRP | -0.293
RRIRSRPPRLPRPRPRPAWSPRP | 0.58
RRIRFRPPRLPRPRPRPKIRPRP | -0.226
RRIRPRPPRLPRPRPRPFAFPRP | 0.00781
RRIRPRPPRLPRPRPRPHGEPRP | -0.159
RRIRCRPPRLPRPRPRPTKQPRP | -0.0825
RRIRQRPPRLPRPRPRPGAEPRP | 0.39
RRIRKRPPRLPRPRPRPSASPRP | 0.288
RRIRFRPPRLPRPRPRPARYPRP | 0.153
RRIRSRPPRLPRPRPRPAMRPRP | 0.588
RRIRFRPPRLPRPRPRPWNAPRP | -0.84
RRIRMRPPRLPRPRPRPNTHPRP | 0.136
RRIRHRPPRLPRPRPRPSMYPRP | -0.0507
RRIRARPPRLPRPRPRPCAAPRP | 0.893
RRIRQRPPRLPRPRPRPRCWPRP | 0.257
RRIRVRPPRLPRPRPRPWDKPRP | -0.0363
RRIRNRPPRLPRPRPRPEGWPRP | 0.68
RRIRVRPPRLPRPRPRPIVLPRP | -0.176
RRIRQRPPRLPRPRPRPYYFPRP | -0.661
RRIRDRPPRLPRPRPRPGEDPRP | -0.000687
